Like-named read-outs stand apart in the source and are kept apart here.

By Kd is commonly meant a measure of binding affinity in units of concentration. By koff is commonly meant a measure of how fast the partners let go of each other. A lower koff goes with a long-lived complex. A word on the kon: it is a measure of how fast the partners come together. Higher therefore signals fast association.

In assay [1] the target is T1, SlyD-SlyD-tagged nucleocapsid full-length protein (EcSlyD-EcSlyD-CoV-2-N(1-419)) (SARS-CoV-2).
The target of assay [2] is T1, SlyD-SlyD-tagged nucleocapsid …. The assay can be described thus: SPR (Biacore), captured antibody, NCP analyte, Langmuir 1:1 fit. Background: In SPR one partner is held on a chip, and binding of the other changes the refractive index at the surface.
For assay [3] the target is unchanged. This is another data set of the same source.

B1: Antibody 1G9 (antibody, V domains shown)
VH: SQSVEESGGRLVTPGTPLTLTCTVSGFSLSTYAVNWVRQAPGKGLEWIGVIDGSGSTYYANWAKGRFTISKASTTVDLKITSPTTEDTATYFCARGAGTDNFGNLNLWGPGTLVTVSS
VL: DVVMTQTPASVEVAVGGTVTIKCQASESISSWLAWYQQKPGQPPKLLIYRASTLASGVPSRFKGSGSGTEYTLTISGVECADAATYYCQQDYSTSNIDNTFGGGTEVVVK
notes: also called clone 1G9
B1 registered a Kd in assay [1] of 1.2 nM. Also, in assay [2], the “MR (molar ratio)” value is 1.2, the koff was 0.00024 s⁻¹, the kon was 200000 M⁻¹ s⁻¹ and the t1/2 diss turned out to be 0.8 h. In assay [3], the “MR (molar ratio)” value is 1.2, the koff worked out at 0.00024 s⁻¹, the kon is 200000 M⁻¹ s⁻¹ and the t1/2 diss stood at 0.8 h.

B2: Antibody 1.1.32 (antibody, V domains shown)
VH: EVQLQQSGPELVKPGASVKMSCKASGYTFTTYVMHWVKQKPGQGLEWIGYSDPYNGDSKDNENFKGKATLTSDKSSSTVYMELSSLTSEDSAVYYCARGFGNYLFYFDYWGQGTTLTVSS
VL: DIQMTQTTSSLSASLGDRVTISCSASQDIRDYLNWYQQKPDGTVKLLIYYTSNLHSGVPSRFSGSGSGTDYSLTISNLEPEDIATYFCQQYSKLPYTFGGGTKLEIK
notes: also called M-1.1.32; clone 1.1.32
In assay [1], B2 displayed a dissociation constant Kd of 0.06 nM and a koff of 2e-05 s⁻¹. Also, in assay [2], the dissociation constant (Kd) was 0.059 nM, the “MR (molar ratio)” value was found to be 0.9, the kon was found to be 340000 M⁻¹ s⁻¹ and the t1/2 diss is 9.65 h. Further, in assay [3], the Kd amounted to 0.059 nM, the “MR (molar ratio)” value was 0.9, the association rate constant (kon) was 340000 M⁻¹ s⁻¹ and the t1/2 diss was 9.65 h.

B3: Antibody 5B6 (antibody, V domains shown)
VH: SQSVEESGGRLVTPGTPLTLTCTASGFSLSSYYMSWVRQAPGKGLEWIGVMTAGGSTFYASWAKGRFTISKTSTTVDLKITSPTTEDTATYFCARSIDTNYGSSIWGPGTLVTVSL
VL: DVVMTQTPASMSEPVGGTVTIKCQASEDIYTYLSWYQQQSGQPPKVLIYAASNLASGVSSRFKGSRSGTEYTLTISDLECADAATYYCQGDYYGSNYGLGTFGGGTEVVVK
notes: also called clone 5B6
For the molecule B3, the Kd in assay [1] came out at 0.7 nM. For the same molecule, in assay [2], the “MR (molar ratio)” value came out at 1.7, the koff worked out at 0.00012 s⁻¹, the kon came out at 180000 M⁻¹ s⁻¹ and the t1/2 diss was 1.55 h. In addition, in assay [3], the “MR (molar ratio)” value is 1.7, the koff was determined as 0.00012 s⁻¹, the kon is 180000 M⁻¹ s⁻¹ and the t1/2 diss is 1.55 h.

(Values after patent US20230406909A1 (ROCHE DIAGNOSTICS OPERATIONS, published 2023).)
